Data from article PMC2893456, “Structural definition and substrate specificity of the S28 protease family: the crystal structure of human prolylcarboxypeptidase” (BMC Structural Biology, 2010).

Target: the molecule itself
Experiment: crystal structure; 2.8 Å, MIRAS; space group R32, one molecule in the asymmetric unit, dimer formed across a two-fold crystallographic symmetry axis; crystals from 1.8 M ammonium sulfate, 0.1 M HEPES, pH 7.5, 1-2% PEG 400

B1: human prolylcarboxypeptidase (PRCP) (enzyme)
chain: KNYSVLYFQQKVDHFGFNTVKTFNQRYLVADKYWKKNGGSILFYTGNEGDIIWFCNNTGFMWDVAEELKAMLVFAEHRYYGESLPFGDNSFKDSRHLNFLTSEQALADFAELIKHLKRTIPGAENQPVIAIGGSYGGMLAAWFRMKYPHMVVGALAASAPIWQFEDLVPCGVFMKIVTTDFRKSGPHCSESIHRSWDAINRLSNTGSGLQWLTGALHLCSPLTSQDIQHLKDWISETWVNLAMVDYPYASNFLQPLPAWPIKVVCQYLKNPNVSDSLLLQNIFQALNVYYNYSGQVKCLNISETATSSLGTLGWSYQACTEVVMPFCTNGVDDMFEPHSWNLKELSDDCFQQWGVRPRPSWITTMYGGKNISSHTNIVFSNGELDPWSGGGVTKDITDTLVAVTISEGAHHLDLRTKNALDPMSVLLARSLEVRHMKNWIRDFYDS
modifications: N-linked glycans at Asn 101, 317, 336, 345 and 415 (Asn 47 not glycosylated); disulfide bridges 215-372, 233-310, 264-343, 364-394
notes: prolylcarboxypeptidase (PRCP), human
B1: binds.
